Measured values published in publication PMC6251713 (Immunity, 2018).

T1: maltose binding protein (MBP)-tagged IFIT1 (human, UniProt P09914-1 1-478)
T1 sequence (looked up): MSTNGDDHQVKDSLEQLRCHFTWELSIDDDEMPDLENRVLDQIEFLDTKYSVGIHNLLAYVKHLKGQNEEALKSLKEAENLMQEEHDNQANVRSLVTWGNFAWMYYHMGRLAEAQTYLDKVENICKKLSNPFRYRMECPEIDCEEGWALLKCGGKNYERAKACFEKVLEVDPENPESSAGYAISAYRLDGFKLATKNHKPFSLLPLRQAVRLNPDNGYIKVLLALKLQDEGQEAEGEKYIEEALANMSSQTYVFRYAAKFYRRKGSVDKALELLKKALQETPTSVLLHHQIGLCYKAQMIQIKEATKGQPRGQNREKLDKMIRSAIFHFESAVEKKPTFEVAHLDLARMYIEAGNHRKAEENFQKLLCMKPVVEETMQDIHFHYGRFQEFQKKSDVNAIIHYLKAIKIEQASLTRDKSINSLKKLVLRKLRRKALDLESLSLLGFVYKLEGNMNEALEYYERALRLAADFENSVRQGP

B1: human IFIT3 (natural protein, UniProt O14879 1-490, looked up)
chain: MSEVTKNSLEKILPQLKCHFTWNLFKEDSVSRDLEDRVCNQIEFLNTEFKATMYNLLAYIKHLDGNNEAALECLRQAEELIQQEHADQAEIRSLVTWGNYAWVYYHLGRLSDAQIYVDKVKQTCKKFSNPYSIEYSELDCEEGWTQLKCGRNERAKVCFEKALEEKPNNPEFSSGLAIAMYHLDNHPEKQFSTDVLKQAIELSPDNQYVKVLLGLKLQKMNKEAEGEQFVEEALEKSPCQTDVLRSAAKFYRRKGDLDKAIELFQRVLESTPNNGYLYHQIGCCYKAKVRQMQNTGESEASGNKEMIEALKQYAMDYSNKALEKGLNPLNAYSDLAEFLETECYQTPFNKEVPDAEKQQSHQRYCNLQKYNGKSEDTAVQHGLEGLSISKKSTDKEEIKDQPQNVSENLLPQNAPNYWYLQGLIHKQNGDLLQAAKCYEKELGRLLRDAPSGIGSIFLSASELEDGSEEMGQGAVSSSPRELLSNSEQLN
B2: human IFIT1 (natural protein, UniProt P09914-1 1-478, looked up)
chain: MSTNGDDHQVKDSLEQLRCHFTWELSIDDDEMPDLENRVLDQIEFLDTKYSVGIHNLLAYVKHLKGQNEEALKSLKEAENLMQEEHDNQANVRSLVTWGNFAWMYYHMGRLAEAQTYLDKVENICKKLSNPFRYRMECPEIDCEEGWALLKCGGKNYERAKACFEKVLEVDPENPESSAGYAISAYRLDGFKLATKNHKPFSLLPLRQAVRLNPDNGYIKVLLALKLQDEGQEAEGEKYIEEALANMSSQTYVFRYAAKFYRRKGSVDKALELLKKALQETPTSVLLHHQIGLCYKAQMIQIKEATKGQPRGQNREKLDKMIRSAIFHFESAVEKKPTFEVAHLDLARMYIEAGNHRKAEENFQKLLCMKPVVEETMQDIHFHYGRFQEFQKKSDVNAIIHYLKAIKIEQASLTRDKSINSLKKLVLRKLRRKALDLESLSLLGFVYKLEGNMNEALEYYERALRLAADFENSVRQGP

Key:
[1] = target: T1, maltose binding protein (MBP)-tagged …; test: pull-down
human IFIT1 = target: B2; test: ITC
human IFIT3 = target: B1; test: ITC

Binder	dH (human IFIT1)	stoichiometry N (human IFIT1)	Kd (human IFIT3)	further results
chimeric construct Ifit3-IFIT3CTD (other, mouse | human, UniProt Q64345 1-403, looked up) MSEVNRESLEAILPQLKCHFTWNLFREGSMSSHMEDRVCNQVEHLNSEEKATMYDLLAYIKHLDGESKAALECLGQAEDLRKSEHNDQSEIRRLVTWGNYAWIYYHMGRLSEAQAYVDKVRQVCQKFANPYSMECPELECEEGWTRLKCGRNERAKMCFEKALEEKPKDPECSSGMAIAMFRLEEKPEKQFSVDALKQAMELNPQNQYLKVLLALKLLRMGEEAEGERLIKDALGKAPNQTDVLQKAAQFYKKKGNLDRAIELLGKALRSTVNNSPLYSLVMCRYREILEQLQNKGDADSSERRQRMAELRRLTMEFMQKTLQRRRSPLNSYSDLIDFPEVERCYQMVISKESPDVEEEDLYERYCNLQEYHRKSEDLAALECLLQFPRNERSIEKEEVKEQTQNVSENLLPQNAPNYWYLQGLIHKQNGDLLQAAKCYEKELGRLLRDAPSGIGSIFLSASELEDGSEEMGQGAVSSSPRELLSNSEQLN				binding result [1]: binds
B1	-54.4 kJ/mol	0.93 ± 0.01		
IFIT3 403–490 (IFIT3CTD) (domain or fragment, human, UniProt O14879 403-490, looked up) QNVSENLLPQNAPNYWYLQGLIHKQNGDLLQAAKCYEKELGRLLRDAPSGIGSIFLSASELEDGSEEMGQGAVSSSPRELLSNSEQLN	-71.1 kJ/mol	0.97 ± 0.03		Kd (human IFIT1): 1.4 ± 3.1 nM
IFIT1 RNA binding mutant (R38A and K151A) (natural protein, human, UniProt P09914-1 1-478, looked up) MSTNGDDHQVKDSLEQLRCHFTWELSIDDDEMPDLENAVLDQIEFLDTKYSVGIHNLLAYVKHLKGQNEEALKSLKEAENLMQEEHDNQANVRSLVTWGNFAWMYYHMGRLAEAQTYLDKVENICKKLSNPFRYRMECPEIDCEEGWALLACGGKNYERAKACFEKVLEVDPENPESSAGYAISAYRLDGFKLATKNHKPFSLLPLRQAVRLNPDNGYIKVLLALKLQDEGQEAEGEKYIEEALANMSSQTYVFRYAAKFYRRKGSVDKALELLKKALQETPTSVLLHHQIGLCYKAQMIQIKEATKGQPRGQNREKLDKMIRSAIFHFESAVEKKPTFEVAHLDLARMYIEAGNHRKAEENFQKLLCMKPVVEETMQDIHFHYGRFQEFQKKSDVNAIIHYLKAIKIEQASLTRDKSINSLKKLVLRKLRRKALDLESLSLLGFVYKLEGNMNEALEYYERALRLAADFENSVRQGP			2.1 ± 6 nM	
B2			1.5 ± 2 nM	
